Test results as given in publication PMC2173397.

Molecular target: T1, Apaf-1 (human (endogenous in HeLa)), O14727
T1 chain: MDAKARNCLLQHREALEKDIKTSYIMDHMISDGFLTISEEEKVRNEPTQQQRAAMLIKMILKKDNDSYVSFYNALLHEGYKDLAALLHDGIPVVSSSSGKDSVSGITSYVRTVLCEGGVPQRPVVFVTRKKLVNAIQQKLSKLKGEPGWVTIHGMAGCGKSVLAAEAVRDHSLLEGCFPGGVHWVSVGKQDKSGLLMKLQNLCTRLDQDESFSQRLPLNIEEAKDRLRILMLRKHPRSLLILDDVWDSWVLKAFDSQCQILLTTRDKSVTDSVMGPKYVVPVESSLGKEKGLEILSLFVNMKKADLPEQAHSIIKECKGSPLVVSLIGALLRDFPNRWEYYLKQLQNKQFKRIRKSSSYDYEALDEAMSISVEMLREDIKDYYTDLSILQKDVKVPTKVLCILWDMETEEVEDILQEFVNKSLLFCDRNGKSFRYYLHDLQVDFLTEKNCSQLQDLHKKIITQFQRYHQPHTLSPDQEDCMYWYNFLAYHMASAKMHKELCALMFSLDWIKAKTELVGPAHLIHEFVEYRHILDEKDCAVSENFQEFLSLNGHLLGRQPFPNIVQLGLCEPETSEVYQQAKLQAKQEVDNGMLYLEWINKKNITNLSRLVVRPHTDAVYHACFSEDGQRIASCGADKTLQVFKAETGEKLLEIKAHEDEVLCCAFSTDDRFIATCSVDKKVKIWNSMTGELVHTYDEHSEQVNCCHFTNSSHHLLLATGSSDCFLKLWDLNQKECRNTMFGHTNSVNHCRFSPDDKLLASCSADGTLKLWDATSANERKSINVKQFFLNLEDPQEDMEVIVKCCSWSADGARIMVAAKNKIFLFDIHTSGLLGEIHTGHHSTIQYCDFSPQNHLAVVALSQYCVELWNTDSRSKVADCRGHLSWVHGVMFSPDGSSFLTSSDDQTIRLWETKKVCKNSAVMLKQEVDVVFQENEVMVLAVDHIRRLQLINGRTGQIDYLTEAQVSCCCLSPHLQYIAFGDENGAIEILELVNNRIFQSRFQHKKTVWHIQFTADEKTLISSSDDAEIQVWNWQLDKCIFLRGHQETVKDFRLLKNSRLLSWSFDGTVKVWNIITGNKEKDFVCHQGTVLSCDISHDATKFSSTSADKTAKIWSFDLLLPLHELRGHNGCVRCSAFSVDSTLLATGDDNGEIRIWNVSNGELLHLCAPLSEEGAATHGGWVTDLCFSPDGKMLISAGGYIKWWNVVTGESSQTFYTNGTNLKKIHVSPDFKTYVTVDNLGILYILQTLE
Assay: SEC
Details: remark: other sources report otherwise

B1: caspase-9, P55211 1-416 (natural protein)
chain: MDEADRRLLRRCRLRLVEELQVDQLWDALLSRELFRPHMIEDIQRAGSGSRRDQARQLIIDLETRGSQALPLFISCLEDTGQDMLASFLRTNRQAAKLSKPTLENLTPVVLRPEIRKPEVLRPETPRPVDIGSGGFGDVGALESLRGNADLAYILSMEPCGHCLIINNVNFCRESGLRTRTGSNIDCEKLRRRFSSLHFMVEVKGDLTAKKMVLALLELAQQDHGALDCCVVVILSHGCQASHLQFPGAVYGTDGCPVSVEKIVNIFNGTSCPSLGGKPKLFFIQACGGEQKDHGFEVASTSPEDESPGSNPEPDATPFQEGLRTFDQLDAISSLPTPSDIFVSYSTFPGFVSWRDPKSGSWYVETLDDIFEQWAHSEDLQSLLLRVANAVSVKGIYKQMPGCFNFLRKKLFFKTS
percent recruited to the high Mr complex: 50%
